The results in this text go back to patent publication US20190177437A1 (SINGH MOLECULAR MEDICINE, published 2019).

For assay [1], the target named is T1, active human TNF-α full length protein (human, UniProt P01375 77-233). Nature of the assay: ELISA, TNF coat 0.25 µg/mL, sdAb 1 µg/mL, anti-llama 1:5,000, HRP 1:50,000. For orientation: An ELISA detects its analyte on a solid surface through an enzyme-linked reagent.
Assay [2] concerns the target T1, active human TNF-α full length protein. Nature of the assay: ELISA, TNF coat 0.5 µg/mL, sdAb 1 µg/mL, anti-llama 1:10,000, HRP 1:50,000.
Assay [3] shares this target. Nature of the assay: ELISA, TNF coat 0.125 µg/mL, sdAb 1 µg/mL, anti-llama 1:5,000, HRP 1:50,000.
For assay [4] the target is unchanged. Nature of the assay: ELISA, TNF coat 0.125 µg/mL, sdAb 1 µg/mL, anti-llama 1:10,000, HRP 1:25,000.
For assay [5] the target is unchanged. Description: ELISA, TNF coat 0.25 µg/mL, sdAb 1 µg/mL, anti-llama 1:10,000, HRP 1:25,000.
The target is the same in assay [6]. Description: ELISA, TNF coat 0.5 µg/mL, sdAb 1 µg/mL, anti-llama 1:10,000, HRP 1:25,000.
For assay [7] the target is unchanged. Description: ELISA, TNF coat 0.125 µg/mL, sdAb 1 µg/mL, anti-llama 1:5,000, HRP 1:25,000.
The target is the same in assay [8]. Description: ELISA, TNF coat 0.25 µg/mL, sdAb 1 µg/mL, anti-llama 1:10,000, HRP 1:50,000.
Assay [9] has the same target. Nature of the assay: ELISA, TNF coat 0.5 µg/mL, sdAb 1 µg/mL, anti-llama 1:5,000, HRP 1:25,000.
Assay [10] has the same target. Nature of the assay: ELISA, TNF coat 0.125 µg/mL, sdAb 1 µg/mL, anti-llama 1:10,000, HRP 1:50,000.
The target is the same in assay [11]. Nature of the assay: ELISA, TNF coat 0.25 µg/mL, sdAb 1 µg/mL, anti-llama 1:5,000, HRP 1:25,000.
The target is the same in assay [12]. Nature of the assay: ELISA, TNF coat 0.5 µg/mL, sdAb 1 µg/mL, anti-llama 1:5,000, HRP 1:50,000.
The target is the same in assay [13].

T1 sequence (P01375 77-233 limits assumed): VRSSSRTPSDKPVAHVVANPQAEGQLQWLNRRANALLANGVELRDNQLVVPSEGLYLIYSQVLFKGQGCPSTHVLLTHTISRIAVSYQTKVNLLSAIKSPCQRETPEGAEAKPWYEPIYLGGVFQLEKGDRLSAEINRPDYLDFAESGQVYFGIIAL

B1: anti-TNF-α VHH69 (SEQ ID NO:46) sdAb (VHH)
VHH: EVQLVESGGGSVLAGGSLRLSCVASGFTSRYNYMAWFRQAPGKEREGVATIGTASGSADYYGSVKDRFTISQDNAKNTVYLQMNSLKPEDTAMYYCAARTYGTISLTPSDYRYWGQGTLVTVSS
As for B1, the “Signal/Noise Ratio” value in assay [1] was 2.4 ratio; in assay [2], 3.7 ratio; in [3], 1.6 ratio; in assay [4], 1.5 ratio; in assay [5], 2.1 ratio; in assay [6] it was 5.9 ratio. The “Signal/Noise Ratio” value was 1.6 ratio in [7]; 1.9 ratio in assay [8]; 8 ratio in assay [9]; 1.3 ratio in [10]; 3.2 ratio in assay [11]; 7.5 ratio in assay [12].

B2: anti-TNF-α VHH62 (SEQ ID NO:47) sdAb (VHH)
VHH: QVQLVESGGGPVQAGETLRLSCTASGFTFAEADMGWYRQAPGHECELVSTITTEGITSEASSYYADSVRGRFTISRDNAKNMVYLQMNSLKPEDTAVYYCAPDPYAYSTYSDYCSWAQGTQGTLVTVSS
As for B2, the “Signal/Noise Ratio” value in [1] worked out at 1.4 ratio; in assay [2], 1.5 ratio; in [3], 1.1 ratio; in assay [4], 1.1 ratio; in [5] it was 1.4 ratio; in assay [6], 1.7 ratio. For the same molecule, the “Signal/Noise Ratio” value is 1.1 ratio in assay [7]; 1.3 ratio in [8]; 2 ratio in [9]; 0.9 ratio in assay [10]; 1.5 ratio in [11]; 1.9 ratio in assay [12]. In addition, in [13], the binding result is reported as “no binding (tested: 1 µg/mL)”.
